From patent EP4361176A1 (CHUGAI SEIYAKU KABUSHIKI KAISHA, dated 2024)

T1: hFcyRIIaH on hFcyRIIaH-expressing Jurkat cells (human, UniProt P12318 34-317)
T1 sequence (looked up): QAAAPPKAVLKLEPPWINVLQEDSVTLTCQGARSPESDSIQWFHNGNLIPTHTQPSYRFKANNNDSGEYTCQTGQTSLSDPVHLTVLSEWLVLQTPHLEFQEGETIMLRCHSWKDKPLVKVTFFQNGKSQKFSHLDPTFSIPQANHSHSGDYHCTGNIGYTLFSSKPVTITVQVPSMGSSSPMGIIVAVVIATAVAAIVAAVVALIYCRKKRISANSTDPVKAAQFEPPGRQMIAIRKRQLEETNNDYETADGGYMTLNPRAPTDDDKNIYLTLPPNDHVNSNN

T2: human FcγRIIa H extracellular domain (human, UniProt P12318 34-217)
T2 construct: extracellular domain; Made by the method of WO2014104165; also called hFcγR IIa H; FcyRIIaH
T2 sequence (looked up): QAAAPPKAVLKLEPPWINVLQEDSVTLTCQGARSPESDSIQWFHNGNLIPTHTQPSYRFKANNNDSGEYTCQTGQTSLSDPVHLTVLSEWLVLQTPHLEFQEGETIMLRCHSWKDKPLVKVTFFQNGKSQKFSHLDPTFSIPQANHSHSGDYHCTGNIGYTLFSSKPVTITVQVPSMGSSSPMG

T3: human CTLA4 (soluble analyte of the Biacore assays of Reference Example 3-3) (human, UniProt P16410 36-161)
T3 construct: also called hCTLA4
T3 sequence: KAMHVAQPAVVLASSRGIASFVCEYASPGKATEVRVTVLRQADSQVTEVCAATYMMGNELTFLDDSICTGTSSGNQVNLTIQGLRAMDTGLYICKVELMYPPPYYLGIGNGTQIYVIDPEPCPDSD


Assays:
[1] = biological target: hFcyRIIIaV on hFcyRIIIaV-expressing Jurkat cells (human, UniProt P08637 17-254); assay: cell-based or functional assay
[2] = biological target: T1, hFcyRIIaH on hFcyRIIaH-expressing …; assay: cell-based or functional assay
[3] = biological target: T2, human FcγRIIa H extracellular domain; assay: SPR; KD for FcγRIIb divided by KD for this FcγR
[4] = biological target: T4, human FcγRIIIa F extracellular domain (human, UniProt P08637 17-208); assay: SPR; KD for FcγRIIb divided by KD for this FcγR
T4 construct: extracellular domain; Made by the method of WO2014104165; also called hFcγR IIIa F; FcyRIIIaF

[5] = biological target: T3, human CTLA4 (soluble analyte of the …); assay: SPR, 1000 nM CTLA4, per unit antibody, no ATP
[6] = biological target: T3, human CTLA4 (soluble analyte of the …); assay: SPR, 1000 nM CTLA4, per unit antibody, ATP 1 uM
[7] = biological target: T3, human CTLA4 (soluble analyte of the …); assay: SPR, 1000 nM CTLA4, per unit antibody, ATP 10 uM
[8] = biological target: T3, human CTLA4 (soluble analyte of the …); assay: SPR, 1000 nM CTLA4, per unit antibody, ATP 100 uM
[9] = biological target: T3, human CTLA4 (soluble analyte of the …); assay: SPR Biacore T200

Chain of hFcyRIIIaV on hFcyRIIIaV-expressing Jurkat cells (P08637 17-254): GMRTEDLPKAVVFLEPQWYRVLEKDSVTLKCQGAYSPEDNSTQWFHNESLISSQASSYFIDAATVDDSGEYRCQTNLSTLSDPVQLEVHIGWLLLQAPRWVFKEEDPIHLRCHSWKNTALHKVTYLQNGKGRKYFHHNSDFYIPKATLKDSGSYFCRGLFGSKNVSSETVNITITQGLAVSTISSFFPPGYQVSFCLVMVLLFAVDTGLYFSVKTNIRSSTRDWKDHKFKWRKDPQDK
T4 sequence (P08637 17-208): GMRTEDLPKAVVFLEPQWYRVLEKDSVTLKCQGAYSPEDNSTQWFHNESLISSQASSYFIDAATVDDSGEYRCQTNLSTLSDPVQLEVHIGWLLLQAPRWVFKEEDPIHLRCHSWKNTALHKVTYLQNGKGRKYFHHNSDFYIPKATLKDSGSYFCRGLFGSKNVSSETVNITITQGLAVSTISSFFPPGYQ

Binder	EC50 value (µg/mL), ADCC reporter bioassay (fold induction of luminescence), Hepa1-6/hEREG target cells [1] [µg/mL]	EC50 value (µg/mL), ADCP reporter bioassay (fold induction of luminescence), Hepa1-6/hEREG target cells [2] [µg/mL]	A/I ratio (KD for FcγRIIb divided by KD for each FcyR) [3]	A/I ratio (KD for FcγRIIb divided by KD for each FcyR) [4]	Binding to Human CTLA4 [5]	Binding to Human CTLA4 [6]	Binding to Human CTLA4 [7]	Binding to Human CTLA4 [8]	binding result [9]
H240-Kn037/L73-k0//H240-Hl036/L73-k0 (antibody, human IgG1, kappa, also called EGL-GASDIE; GASDIE) heavy 1: QDQLVQSGAEVKKPGASVKVSCKASGFNIKDTYIQWVRQAPGQGLEWMGRIDPLRKQTKYREKFEGRVTITADTSTNTAYMELSSLRSEDTAVYYCVRSGREFDYWGQGTLVTVSSASTKGPSVFPLAPSSKSTSGGTAALGCLVKDYFPEPVTVSWNSGALTSGVHTFPAVLQSSGLYSLSSVVTVPSSSLGTQTYICNVNHKPSNTKVDKKVEPKSCDKTHTCPPCPAPELLAGPDVFLFPPKPKDTLMISRTPEVTCVVVDVSHEDPEVKFNWYVDGVEVHNAKTKPREEQYNSTYRVVSVLTVLHQDWLNGKEYKCKVSNKALPAPEEKTISKAKGQPREPQVCTLPPSRDELTKNQVSLWCLVKGFYPSDIAVEWESNGQPENNYKTTPPVLDSDGSFFLYSKLTVDKSRWQQGNVFSCSVMHEALHNHYTQKSLSLSP heavy 2: QDQLVQSGAEVKKPGASVKVSCKASGFNIKDTYIQWVRQAPGQGLEWMGRIDPLRKQTKYREKFEGRVTITADTSTNTAYMELSSLRSEDTAVYYCVRSGREFDYWGQGTLVTVSSASTKGPSVFPLAPSSKSTSGGTAALGCLVKDYFPEPVTVSWNSGALTSGVHTFPAVLQSSGLYSLSSVVTVPSSSLGTQTYICNVNHKPSNTKVDKKVEPKSCDKTHTCPPCPAPELLAGPDVFLFPPKPKDTLMISRTPEVTCVVVDVSHEDPEVKFNWYVDGVEVHNAKTKPREEQYNSTYRVVSVLTVLHQDWLNGKEYKCKVSNKALPAPEEKTISKAKGQPREPQVYTLPPSRCELTKNQVSLSCAVKGFYPSDIAVEWESNGQPENNYKTTPPVLDSDGSFFLVSKLTVDKSRWQQGNVFSCSVMHEALHNHYTQKSLSLSP light: DIQMTQSPSSLSASVGDRVTITCRASQDIHKYIAWYQQKPGQAPRLLIQYTSTLQPGVPSRFSGSGSGTDYTFTISSLQPEDIATYYCLQYEQLRTFGGGTKVEIKRTVAAPSVFIFPPSDEQLKSGTASVVCLLNNFYPREAKVQWKVDNALQSGNSQESVTEQDSKDSTYSLSSTLTLSKADYEKHKVYACEVTHQGLSSPVTKSFNRGEC	0.0037	0.0149	18.2	18.9					
04H1207-G1m/04L1086-lam1 (antibody, human IgG1, lambda, V domains shown) VH: EVQLVESGGGLVKPGGSLRLSCAASGFTFSSKTMNWVRQAPGKGLEWVSSISTRSGYIYYAESVKGRFTISRDNAKNSLYLQMNSLRAEDTAVYYCARYGKREDMLWVFDYWGQGTLVTVSS VL: QSALTQPPSASGSPGQTVTISCDGPSTGVGDYNYVHWYQQHPGKAPKLMIYFTSKKPSGVPDRFSGSKSGNTASLTVSGLQAEDEADYFCQTYAAPLGPMFGGGTKLTVLG					0.013	0.047	0.137	0.196	
04H1389v373-G1m/04L1086-lam1 (antibody, human IgG1, lambda) heavy: not shown light: QSALTQPPSASGSPGQTVTISCDGPSTGVGDYNYVHWYQQHPGKAPKLMIYFTSKKPSGVPDRFSGSKSGNTASLTVSGLQAEDEADYFCQTYAAPLGPMFGGGTKLTVLGQPKAAPSVTLFPPSSEELQANKATLVCLISDFYPGAVTVAWKADSSPVKAGVETTTPSKQSNNKYAASSYLSLTPEQWKSHRSYSCQVTHEGSTVEKTVAPTECS									binds
04H1077-G1m/04L1041-lam1 (antibody, human IgG1, lambda, V domains shown) VH: EVQLVESGGDLVKPGGGLRLSCAASGFTFSSRTMNWVRQAPGKGLEWVSSISTRSGYIYYAESVKGRFTISRDNAKNSLYLQMNSLRAEDTAVYYCARYGKREDMLWVFDYWGQGTLVTVSS VL: QSALTQPPSASGSPGQTVTISCDGPSTDVGDYNYVHWYQQHPGKAPKLMIYFTSKKPSGVPDRFSGSKSGNTASLTVSGLQAEDEADYFCSTYAAPLGPMFGGGTKLTVLG					0.006	0.023	0.094	0.172	
04H1077-G1m/04L1066-lam1 (antibody, human IgG1, lambda, V domains shown) VH: EVQLVESGGDLVKPGGGLRLSCAASGFTFSSRTMNWVRQAPGKGLEWVSSISTRSGYIYYAESVKGRFTISRDNAKNSLYLQMNSLRAEDTAVYYCARYGKREDMLWVFDYWGQGTLVTVSS VL: QSALTQPPSASGSPGQTVTISCDGPSTDVGDYNWVHWYQQHPGKAPKLMIYFTSKKPSGVPDRFSGSKSGNTASLTVSGLQAEDEADYFCSTYAAPLGPMFGGGTKLTVLG					0.02	0.057	0.142	0.185	
04H1077-G1m/04L1034-lam1 (antibody, human IgG1, lambda, V domains shown) VH: EVQLVESGGDLVKPGGGLRLSCAASGFTFSSRTMNWVRQAPGKGLEWVSSISTRSGYIYYAESVKGRFTISRDNAKNSLYLQMNSLRAEDTAVYYCARYGKREDMLWVFDYWGQGTLVTVSS VL: QSALTQPPSASGSPGQTVTISCDGPSTDVGDYNWVSWYQQHPGKAPKLMIYFTSKKPSGVPDRFSGSKSGNTASLTVSGLQAEDEADYFCSTYAAPLGPMFGGGTKLTVLG					0.004	0.007	0.041	0.114	
04H1208-G1m/04L1086-lam1 (antibody, human IgG1, lambda, V domains shown) VH: EVQLVESGGGLVKPGGSLRLSCAASGFTFSSKTMNWVRQAPGKGLEWVSSISTRSGYIYYARSVKGRFTISRDNAKNSLYLQMNSLRAEDTAVYYCARYGKREDMLWVFDYWGQGTLVTVSS VL: QSALTQPPSASGSPGQTVTISCDGPSTGVGDYNYVHWYQQHPGKAPKLMIYFTSKKPSGVPDRFSGSKSGNTASLTVSGLQAEDEADYFCQTYAAPLGPMFGGGTKLTVLG					0.005	0.03	0.108	0.17	
04H1077-G1m/04L1067-lam1 (antibody, human IgG1, lambda, V domains shown) VH: EVQLVESGGDLVKPGGGLRLSCAASGFTFSSRTMNWVRQAPGKGLEWVSSISTRSGYIYYAESVKGRFTISRDNAKNSLYLQMNSLRAEDTAVYYCARYGKREDMLWVFDYWGQGTLVTVSS VL: QSALTQPPSASGSPGQTVTISCDGPSTGVGDYNYVHWYQQHPGKAPKLMIYFTSKKPSGVPDRFSGSKSGNTASLTVSGLQAEDEADYFCSTYAAPLGPMFGGGTKLTVLG					0.012	0.041	0.131	0.192	
04H1077-G1m/04L1305-k0MT (antibody, human IgG1, kappa, V domains shown) VH: EVQLVESGGDLVKPGGGLRLSCAASGFTFSSRTMNWVRQAPGKGLEWVSSISTRSGYIYYAESVKGRFTISRDNAKNSLYLQMNSLRAEDTAVYYCARYGKREDMLWVFDYWGQGTLVTVSS VL: DIVMTQSPLSLPVTPGEPASISCDGPSTGVGDYNYVHWYQQKPGQAPRLLIYFTSKKPSGVPDRFSGSGSGTDFTLKISRVEAEDVGVYYCQTYAAPLGPMFGQGTKLEIKR					0.018	0.046	0.128	0.185	
04H1077-G1m/04L1086-lam1 (antibody, human IgG1, lambda, V domains shown) VH: EVQLVESGGDLVKPGGGLRLSCAASGFTFSSRTMNWVRQAPGKGLEWVSSISTRSGYIYYAESVKGRFTISRDNAKNSLYLQMNSLRAEDTAVYYCARYGKREDMLWVFDYWGQGTLVTVSS VL: QSALTQPPSASGSPGQTVTISCDGPSTGVGDYNYVHWYQQHPGKAPKLMIYFTSKKPSGVPDRFSGSKSGNTASLTVSGLQAEDEADYFCQTYAAPLGPMFGGGTKLTVLG					0.01	0.031	0.106	0.181	
04H1637-G1m/04L1086-lam1 (antibody, human IgG1, lambda) heavy: not shown light: QSALTQPPSASGSPGQTVTISCDGPSTGVGDYNYVHWYQQHPGKAPKLMIYFTSKKPSGVPDRFSGSKSGNTASLTVSGLQAEDEADYFCQTYAAPLGPMFGGGTKLTVLGQPKAAPSVTLFPPSSEELQANKATLVCLISDFYPGAVTVAWKADSSPVKAGVETTTPSKQSNNKYAASSYLSLTPEQWKSHRSYSCQVTHEGSTVEKTVAPTECS									binds
